Laboratory results reported in the nanobody polyreactivity screen of Harvey et al. (2022).

Assay: yeast display, Sf9 membrane polyspecificity reagent, FACS + sequencing; frameworks hold sequencing errors
Method in brief: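 Using colony PCR, genes from sorted yeast display clones were amplified, then sequenced on MiSeq at 2 × 250 and filtered by CDR length. The clones had been stained with 10% biotinylated, detergent-solubilized Sf9 membrane reagent for 1 hour at 4 °C and sorted by FACS into low and high (top ~1%) gates on anti-HA and streptavidin fluorescence. Polyreactivity labels come from the gate of origin.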

Sequence | polyreactivity (PSR sort gate)
QVQLVESGGGLVQAGGSLRLSCAASGIIFPYYTMGWYRQAPGKERELVAAISTSGGSTYYADSVKGRFTISRDNAKNTVYLQMNSLKPEDTAVYFCAAELSYDYSHDYWGQGTQVTVSS | high polyreactivity
QVQLVESGGGLVQAGGRLRLSCAASGSTFSSNAMGWYRQAPGKERELVAAITTSGGSTYYADSVKGRFTISRDNAKTTVYLQMNSLKPEDTAVYYCAADLVHAYQWSIFLYGYWGQGTQVTVSS | low polyreactivity
QVQLVESGGGLVQAGRSLRLSCAASGSTFSWNTMGWYRPAPGIERELVAAINSGGSTYYADSVKGRFTISRDNAKNTVYLQMNSLKPEDTAFYYCAARTKYYGRFDYWGQGTQVTVCS | low polyreactivity
QVQLVESGGGLVQAGGTLRLSCAASGSTFVYNAMGWYRQAPGKERDLVATITGGGSTYYADSVKGRFTISRDNAKNTVYLQMNSLKPEDTAVYYCSKRRDSYDVEYDYWGQGTQVTVSS | low polyreactivity
QVQLVESGGGLVQAGGSLRLSCAASGSIFTGYDMGWYRQAPGKERELVAVISTAGRTYYADSVKGRFTISRDNAKNTVYLQMNSLKPEDTAVYYCAKRSYSKDQPRYGYWGQGTQVTVSS | low polyreactivity
QVQLVESGGGLVQAGGSLRLSCAASGRIFYVYAMGWYRQAPGKERELVAAISRGGSTNYADSVKGRFTISRDNAKNTVYLQMNSLKPEDTAVYYCAASSLPHYSYRHSYLYEYWGQGTQVTVSS | low polyreactivity
QVQLVESGGGLVQAGGRLRLSCAASGRIFYFNAMGWYRQAPGKEREFVASINSIGDSTYYADSVKGRFTISRDNAKNTVYLQMNSLKPEDTAVYYCNADHGVINYRLDYWGQGTQVTVSS | low polyreactivity
QVQLVESGGGLVQAGGSLRLSCAASGRIFYRNAMGWYRQAPGKERELVAAISSGGITNYADSVKGRFTISRDNAKNTVYLQMNSLKPEDTAVYYCNADAYRLPGYTFGYWGQGTQVTVSS | high polyreactivity
QVQLVESGGGLVQAGGSLRLSCAASGGTFDVYTMGWYRPAPGKERELVAAISSSGARTYYADSVKGRFTISRDNAKNTVNLQMNSLKPEDTAVFYCATRSLGLRWHYYYWGQGTQVTVSS | high polyreactivity
QVQLVESGGGLVQAGGSLRLSCAASGYIVGAYAKGWYRQAPGKERELVAGITASGDSTYYADSVKGRFTISRDNAKNTVYLQMKCLKPEDTAVYYCNAQPDIGLYDRQWKEPYEYWGQGTQVTVSS | low polyreactivity
QVQLVESGGGLVQAGGSLRLSCAASGSTFSRYAMGWYRPAPGKERELVAAISGTDDSTYYADSVKGRFTISRDNAKNTVYLQMNSLKPEDTAVYYCAARLVESRYGFGYEYYYWGQGTQVTVSS | low polyreactivity
QVQLVDSGGGLVQAGGSHRLSCAASGSIFPRYAMGWYRQAPGKERELVAAITRSGGSTYADSVKGRFTISRDNAKNTVYLQMNSLKPEDTAVYYCNGKVYPWGYYTSWRTVSPYDYWGQGTQVTVSS | high polyreactivity
QVQLVESGGGLVQAGGSLRLSCAASGITFIYYDMGWYRQAPGKEREFVAAINYRGTSTYYADSVKGRFTISRDNAKNTVYLQMNSLKPEDTAVYYCAARLRQTGGDRLGYWGQGTQVTVSS | high polyreactivity
QVQLVESGGGLVQAGGSLRLSCAASGITFLNYAMGWSRQEPGKERELVAAITSGGSTYYADSVKGRFTITRDNAKNTVYLQMNSLKPEDTAVYYCAADGDSLPYSFWWQIRLDYWGQGTVVTVSS | low polyreactivity
QVQLVESGGGLVQAGGSLRLSCAASGFTFRRNVIGWYRQAPGKERELVAAIRGSDGSTYYADSVKGRFTNSRDNAKNTVYLQMNSLKPEDTAVYYCNVVGIGLYRKMGYWGQGTQVTVSS | high polyreactivity
QVQVVESGGGIVQAGGSLGLSCAASGSNFSYNAMGWYRQAPRKERELVATISNTDSTNYADSVKGRFTISRDNAKNTVYLQMNSLKPEDTAVYYCAVVSARIDYEYWGQGTQVTVSS | low polyreactivity
QVQLVESGGGLVQAGGSLRLSCAASGFIIIGYFMGWYRQAPGKERELVAAITSSGGSTYYADSVKGRFTISRDNAKNTVYLQMNSLKPEDTAVYYCAARLYNSIYWGYYSWGPGTQVTVSS | low polyreactivity
QVQLVESGGGLVQAGGSLRLSCAASGSIFVGYVMGWYRQAPGKERELVAAISKSGSRTYYADSVKGRFTISRDNAKYTVYLQMNSLKPEDTAVYYCATAGYDADDYWGQGTQVTVSS | high polyreactivity
QVQLVGSGGGLVQAGGSLRLSCAASGRTFRAYAMGWYRQAPGKERELVAAIRSSGGSTYADSVKGRFTISRDNAKNTVYLQMNSLKPEDTAVYYFAKPIAPARNAYPAYDYWGQGTQVTVSS | high polyreactivity
QVQVVESGGGLVQPGGSLRLSCAASGSTFGGKAMGWYRQATGKERELVAGITSSGTSTYYADSVKGRFTISRDNAKNTVFLQMNSLKPEDTAVYYCATDEAVESYGFELFDYWGQGTQVTVSS | low polyreactivity
QVQLVESGGGLVQAGGSLRLSCAASGRTFAYNTMGWYRQAPGKERELVAAITSGGNTYYADSVKGRFTISRDNAKNTVYLQMNSLKPEDTAVYYCARYFTARLEGGYWGQGTQVTVSS | high polyreactivity
QVQLVESGGGLVQAGGSLRLSCAASGSIFFVYAMGWYTQAPGKERELVAGIRWSGGRTSYADSVKGRFTISRDNAKNTVYLQMNSLNQEDTAVYYCAAGCGVLPQQHYYYRYDYWGQGTQVTVSS | high polyreactivity

Sequence | polyreactivity (PSR sort gate)
QEQLQESGGGLGQAGGSLRLSCAASGSISSDVLMGWHRQAPGKERELVAAIGIGANTYYADSVKGRFTISRDNAKNTVYPQMNSLKPEDTAVYYCATGRYSGADNYWGQGTQVTVSS | high polyreactivity
QVQLVESGGGLVQAGGSLRLSCAASGITLWQSAKGWYRQAPGKERELVAGITDTGDSTYYADSVKGRFTISRDNAKNTVYLQMNSLKPEDTAVYYCAVPRSALLRAPYELYSWGQGTQVTVSS | low polyreactivity
QVQLVESGGGLVQAGGSLRLSCAASGGIFVVYGMGWYRQAPGKERELVAAISWRGGSTYYADSVKGRFTISRDNAKNTVYLQMNSLKPEDTAVSYCAADQYYGGYDYWGQGTQVTVSS | low polyreactivity
QVQLVDSGGGLVQAGGSLRLSCAASGITFVFYAMGWYRQAPGKERELVAAISSSGGSTYYADSVKGRFTISRDNAKNTVYLQMNSLKPEDTAVYYCNAKVFSYQGAVRYDYWGQGTQVTVSS | high polyreactivity
QVQLVESGGGLVQAGGSLRLSCAASGFTFIRNAMGWYRQAPGKERELVAAISKRGGSTNYADSVKGRFTISRDNAKNTVYLQMNSLKPEDTAVYYCAAGGQVAWLDYYPMDYWGQGTQVTVSS | low polyreactivity
QVQLVESGGGLVQAGGSLRLSCAASGTFQSYAMGWNRQAPGKERELVAAISRSGASTYYADSVKGRFTISRDNAKNTVYLQMISLKPEDTAVYYFAARKTSKYYYWGQGTQVTVSS | high polyreactivity
QVQLVESGGGLVQAGGSLRLSCAASGSTFRTYAMGWYRQAPGKERELVADITWRGGSTYYADSVKGRFTISRDNAKNTVYLQMNSLKPEDTAVYYCATDRGPEVVLYDYWGQGTQVTVSS | low polyreactivity
QVQLVESGGGLVQAGGSLRLTCAASGFIFHRYAMGWYRQAPGKERELVAAITLNGGSTYYADSVKGRFTISRDNAKNTVYLQLNSLKPEDTAVYYCNAGWPWYVGGYYYWGQGTQVTVSS | low polyreactivity
QVQLVDSGGVLVQAVGSLRLSCAASGLIFYSNAMGWYRQAPGKERELVATISWSGGSTYYADSVKGRFTSSRDNAKNTVYLQMNSLTPEDTAVYYCAAVTHPAWAVEYDYWGQGTQVTVSS | high polyreactivity
QDDLVESGGGLVQAGGSLRFRGAASGYTFEKYAMGWKRQAPGKERELFASISWSGGRTRYADSVKGRFTISRDNAKNTDSLQMNSLQPEDTAVDYCAARGAYKSGYNRNEYWGQGTQVTVSS | high polyreactivity
QLHLVESAGGLVQAGGSLRLSCVYSGLTQPYAMGWYRHAPGKEREWVAGITCRGASTYYADSVKGRFTISRDNAKNTVYLQLNSLKPEDTAVYYCAARSTIQRRGYYGYRVGLSEYGYWGQGTQVTVSS | low polyreactivity
QVQLVESGGGLVQAGGSLRLSCAASGSIFDTYAMGCYRPAPGKERELVAAICWSDTSTYADSVKGRFTISRDNAKNTVYLQMNSMKTEDTAVSYCAADFYYYSYYEYVYWGQGTLVTVSS | low polyreactivity
QVQLVESGGGLVQAGGSLRLSCAASGSTFLLNTMGWYRQAPGKERELVAAISSITGDTYYADSVKGRFTISRDNAKNTVYLQMNSLNPEDTAVYYCAAYLSETRPYLYDYWGQGTQVTVSS | low polyreactivity
QVQVVESGGALVQAGGSLRLSCAASGSTFYNYAMGWYRPAPGKERELVAAISSGGGITYYADSVKGRFTISRDNAKNNVYVQMNSLKPEDTAFYYCNARRKYLGYNYWGQGTQVTVSS | high polyreactivity
QVQLVESGGGLVQAGGSLRLSCAASGFIFASYAMGWYRQAPGKERELVAAITQSRGITYYADSVKGRFTISRDNAKNTVYLQMNSLKPEDTAGYYCNTPLLKRTSRGRERNYWGQGTQVTVSS | low polyreactivity
QVQLVESGGGLVQAGGSLRLSCAASGRIFKRYAMGWYRQAPGKERELVAAITYNSGSTYYADSVKGRFTISRDNAKNTVYLQMNSLKPEDTAVYYCAAEKWSDQSPRGDYWGQGTQVTVSS | low polyreactivity
QVQLVESGGRLFQAGGSLRLICAASGSIFVYNTKGWYRQSPGKERELVASISYSGGPTYYADSVKGRFTISRDNAKNTVYLQMKSLNPEDTAVYYCAADVRQRGIYGPGPHYYWGQGTQVTVSS | high polyreactivity
QVQLVESVGGLVQAGGSLRLSCAASGFIFYWYAMGWYRQAPGKERELVAAITRSGGRTYYADSVKGRFTISRDNAKNTVYLQMNSLKPEDTAVYYCNAGYWLSPYKFGYWGQGTQVTVSS | high polyreactivity
QVQLVESGGGLVQAGGSLRLSCAASGSTLGRYAMGWYRQAPGKERELVAAISSSGTTYYADSVKGRITISRDNAKNTVYLQMNSLKPEDTAVYYCNARGFRVARHAAWYQYDYWGQGTQVTVSS | high polyreactivity
QVQLVESGGGLVQAGGSLRLSCAASGRIFYWYVMGWYRQAPGKERELVASISSGGGTNYADSVKGRFTISRDNAKNTVYLQMNSLKPEDTAVYYCAARAYPYYWTGQKQSRFGYWGQGTQVTVSS | high polyreactivity
QVQLVESGGVLVQAGGSLRLSCAATGSIINRYAMGWYRQAPRKERELVAAISSTGSTYYADSVKGRFTISRDNAKNTVYLQLNSLKPEDTAVYYCNADATLDWLRVDSYVYWGQGTQVTVSS | low polyreactivity
